# Data published in patent US20250340608A1 (PROTAGONIST THERAPEUTICS, published 2025).
# Numbered stars: 1 amine (or outer) side, 2 acyl side, 3 side chain; on linkers, the order of the positions; unused ones are H or OH. Bridge positions count the residues as written; N and C are the ends. Square brackets hold non-standard residues; d marks the D form. Primed or numbered codes have the meaning given here. Side chains are listed from the residue outwards. Ends that are not written are not given here. * marks the point of attachment. Ida = iminodiacetic acid, O=C(CN(CC(=O)[*:3])[*:1])[*:2]; Dip = N[C@H](C(=O)O)C(c1ccccc1)c1ccccc1; Palmitoyl = CCCCCCCCCCCCCCCC(=O)*; β3hP = O=C(O)C[C@@H]1CCCN1; Isovaleryl = CC(C)CC(=O)*; PEG3′ = not defined here
# T1: human ferroportin (SLC40A1) fused in frame with GFP, stably expressed in HEK293 cells (human, UniProt Q9NP59 1-571)
# T1 sequence (looked up): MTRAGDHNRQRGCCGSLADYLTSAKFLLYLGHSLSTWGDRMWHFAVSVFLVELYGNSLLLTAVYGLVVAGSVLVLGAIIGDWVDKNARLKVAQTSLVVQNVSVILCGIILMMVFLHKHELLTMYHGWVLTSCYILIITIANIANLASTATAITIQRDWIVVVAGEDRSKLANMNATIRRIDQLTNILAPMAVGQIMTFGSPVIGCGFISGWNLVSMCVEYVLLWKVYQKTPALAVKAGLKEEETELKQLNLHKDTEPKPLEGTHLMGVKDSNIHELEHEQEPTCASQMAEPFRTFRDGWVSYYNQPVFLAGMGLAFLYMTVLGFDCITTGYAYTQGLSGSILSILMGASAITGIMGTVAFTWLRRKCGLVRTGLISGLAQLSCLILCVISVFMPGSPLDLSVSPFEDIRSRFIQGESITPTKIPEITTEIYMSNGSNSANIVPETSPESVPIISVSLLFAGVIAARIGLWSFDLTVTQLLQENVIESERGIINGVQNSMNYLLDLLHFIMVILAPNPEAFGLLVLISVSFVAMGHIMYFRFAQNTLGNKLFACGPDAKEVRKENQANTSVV
# B1: Compound 27 (peptide)
# peptide: H-DTHFPICIFGPHRSKGWVCM-NH2
# modifications: cysteine pairing not given here
# B2: Compound 217 (peptide)
# peptide: {Palmitoyl-PEG3′}-DTHFPCIKFGPRSKGWVCK-NH2
# modifications: cysteine pairing not given here
# B3: Compound 11 (peptide)
# peptide: Isovaleryl-DTHFPCIIFGPRSKGWVCK-NH2
# modifications: not fully specified (bridges); cysteine pairing not given here
# B4: Compound 18 (peptide)
# peptide: H-DTHFPICIFGPRSKGWVCM-NH2
# modifications: not fully specified (bridges); cysteine pairing not given here
# B5: Compound 210 (peptide)
# peptide: DTHFPCIKFKPRSKGWVCK
# modifications: PEG3-IVA on side chain of Lys 10; C-terminal amide
# B6: Compound 216 (peptide)
# peptide: Palmitoyl-DTHFPCIKFGPRSKGWVCK-NH2
# modifications: cysteine pairing not given here
# B7: Compound 52 (peptide)
# peptide: H-DAHFPCIIF-NH2
# B8: Compound 202 (peptide)
# peptide: Isovaleryl-DTHFPCIKFGPRSK([PEG3′-Palmitoyl])GWVCK-NH2
# modifications: cysteine pairing not given here
# B9: Compound 215 (peptide)
# peptide: H-DTHFPCIKFGPRSKGWVCK-NH2
# modifications: cysteine pairing not given here
# B10: Compound 213 (peptide)
# peptide: H-DTHFPCIKFGPRSKGWVCK([PEG3′-Isovaleryl])-NH2
# modifications: cysteine pairing not given here
# B11: Compound 16 (peptide)
# peptide: H-DTHFPICIFGPRAKGWVCM-NH2
# modifications: cysteine pairing not given here
# B12: Compound 205 (peptide)
# peptide: DTHFPCIKFKPRSKGWVCK
# modifications: not fully specified; IVA on side chain of Lys 10; C-terminal amide
# B13: Compound 26 (peptide)
# peptide: H-DTHFAICIFGPRSKGWVCM-NH2
# modifications: cysteine pairing not given here
# B14: Compound 5 (peptide)
# peptide: [Ida]TH[Dip][β3hP]ICIFGPRSKGWVCM-NH2
# modifications: disulfide 7-18 (inferred)
# B15: Compound 211 (peptide)
# peptide: H-DTHFPCIKFGPK([PEG3′-Isovaleryl])SKGWVCK-NH2
# modifications: cysteine pairing not given here
# B16: Compound 199 (peptide)
# peptide: Isovaleryl-DTHFPCIK([PEG3′-Palmitoyl])FGPRSKGWVCK-NH2
# modifications: cysteine pairing not given here
# B17: Compound 38 (peptide)
# peptide: H-DTHAPICIFGPRSKGWVCM-NH2
# modifications: cysteine pairing not given here
# B18: Compound 200 (peptide)
# peptide: DTHFPCIKFKPRSKGWVCK
# modifications: N-terminal isovaleric acid; PEG3-Palm on side chain of Lys 10; C-terminal amide
# B19: Compound 21 (peptide)
# peptide: H-DTHFPCIIFGPRSKGWVCM-NH2
# modifications: cysteine pairing not given here
# B20: Compound 2 (peptide)
# peptide: Isovaleryl-DTHFPICIFGPRSKGWVC-NH2
# modifications: not fully specified (bridges); cysteine pairing not given here
# B21: Compound 51 (peptide)
# peptide: H-DTHFPCIAF-NH2
# B22: Compound 31 (peptide)
# peptide: H-DTHFPICIFGPRSKAWVCM-NH2
# modifications: cysteine pairing not given here
# B23: Compound 33 (peptide)
# peptide: H-ATHFPICIFGPRSKGWVCM-NH2
# modifications: cysteine pairing not given here
# B24: Compound 47 (peptide)
# peptide: H-DTHFPICIFGPRSKGWACM-NH2
# modifications: cysteine pairing not given here
# B25: Compound 204 (peptide)
# peptide: H-DTHFPCIK(Isovaleryl)FGPRSKGWVCK-NH2
# modifications: cysteine pairing not given here
# B26: Compound 203 (peptide)
# peptide: Isovaleryl-DTHFPCIKFGPRSKGWVCK([PEG3′-Palmitoyl])-NH2
# modifications: cysteine pairing not given here
# B27: Compound 209 (peptide)
# peptide: H-DTHFPCIK([PEG3′-Isovaleryl])FGPRSKGWVCK-NH2
# modifications: cysteine pairing not given here
# B28: Compound 212 (peptide)
# peptide: H-DTHFPCIKFGPRSK([PEG3′-Isovaleryl])GWVCK-NH2
# modifications: cysteine pairing not given here
# B29: Compound 22 (peptide)
# peptide: H-DTHFPICIFAPRSKGWVCM-NH2
# modifications: cysteine pairing not given here
# B30: Compound 55 (peptide)
# peptide: H-DTHFPCIIFK-NH2
# B31: Compound 214 (peptide)
# peptide: Isovaleryl-DTHFPCIKFEPRSKKWVCK-NH2
# modifications: not fully specified (bridges); cysteine pairing not given here
# B32: Compound 34 (peptide)
# peptide: H-DTHFPICIFGPASKGWVCM-NH2
# modifications: cysteine pairing not given here
# B33: Compound 201 (peptide)
# peptide: Isovaleryl-DTHFPCIKFGPK([PEG3′-Palmitoyl])SKGWVCK-NH2
# modifications: cysteine pairing not given here
# B34: Compound 28 (peptide)
# peptide: H-DTHFPICIFGPRAKGWVCM-NH2
# modifications: cysteine pairing not given here
# B35: Compound 56 (peptide)
# peptide: H-DTHFPCIFF-NH2
# Biological target: T1, human ferroportin (SLC40A1) fused in …
# Assay: cell-based or functional assay
Potency EC50,Potency EC50 (nM),Binder
0.149 µM,–,B1
–,> 1000 nM,B2
0.009 µM,–,B3
0.125 µM,–,B4
0.457 µM,–,B5
–,> 1000 nM,B6
0.388 µM,–,B7
0.003 µM,–,B8
–,> 1000 nM,B9
0.233 µM,–,B10
0.088 µM,–,B11
> 0.3 µM,–,B12
0.147 µM,–,B13
0.017 µM,–,B14
> 0.3 µM,–,B15
0.007 µM,–,B16
0.254 µM,–,B17
0.006 µM,–,B18

Potency EC50,Potency EC50 (nM),Binder
0.046 µM,–,B19
0.005 µM,–,B20
0.382 µM,–,B21
0.175 µM,–,B22
0.184 µM,–,B23
0.313 µM,–,B24
> 0.3 µM,–,B25
0.004 µM,–,B26
0.342 µM,–,B27
> 0.3 µM,–,B28
9.43 µM,–,B29
0.419 µM,–,B30
0.015 µM,–,B31
0.206 µM,–,B32
0.004 µM,–,B33
0.088 µM,–,B34
0.441 µM,–,B35
